Laboratory results from the RNAGym collection of RNA variant scans (doi:10.1021/acssynbio.7b00057).

B1: Pistol ribozyme (parent)
chain: GGGUCGUUGUUCCAUAAUCGCGUGGAUAUGGCACGCAAGUUUCUACCGGGCACCGUAAAUGUCCGACUGGAGCCGUUCGGGCGGCUAUAAACAGACCUCAGGCCCGAAGCGUGGCGGCACCUGCCGCCGGUGGUAAAAAAGAUCGGAAGAGCACACGUCU

Variants of: B1
Test: aptazyme ON/OFF ratio, guanine; higher = stronger switching; co-transcriptional cleavage with and without guanine

Row | Variant | aptazyme ON/OFF ratio
1 | U7A U8A G9C U10C U11G C12U C13U | 1.06
2 | U7A U8A G9C U10C U11G C12U C13G | 1.05
3 | U7A U8A G9C U10C U11G C12U C13A | 1.02
4 | U7A U8A G9A U11G C13U | 1.29
5 | U7A U8A G9A U11G C13G | 1.14
6 | U7A U8A G9A U11G C13A | 1.15
7 | U7A U8A G9U U10A C12A | 1.27
8 | U7A U8A G9U U10A C12G | 1.41
9 | U7A U8A G9U U10A C12U | 1.16
10 | U7A U8A G9U C12A | 1.19
11 | U7A U8A G9U C12U | 1.32
12 | U7A U8A G9U C12G | 1.45
13 | U7A U8A G9U U10A C12U C13A | 1.05
14 | U7A U8A G9U U10A C12U C13G | 1.23
15 | U7A U8A G9U U10A C12U C13U | 1.13
16 | U7A U8A G9A U11A C13G | 1.11
17 | U7A U8A G9A U11A C13U | 1.19
18 | U7A U8A G9A U11A C13A | 1.2
19 | U7A U8A G9C U10C U11A C12G C13U | 1.1
20 | U7A U8A G9C U10C U11A C12G C13A | 1.05
21 | U7A U8A G9C U10C U11A C12G C13G | 1.06
22 | U7A U8A G9A U11G C12G C13A | 1.16
23 | U7A U8A G9A U11G C12G C13G | 1.33
24 | U7A U8A G9A U11G C12G C13U | 1.32

Row | Variant | aptazyme ON/OFF ratio
25 | U7A U8A G9C U10C C12U C13G | 1.1
26 | U7A U8A G9C U10C C12U C13U | 1.07
27 | U7A U8A G9C U10C C12U C13A | 1.02
28 | U7A U8A G9C U11A C13U | 1.17
29 | U7A U8A G9C U11A C13A | 1.21
30 | U7A U8A G9C U11A C13G | 1.06
31 | U7A U8A G9A U11G C12U C13A | 1.16
32 | U7A U8A G9A U11G C12U C13G | 1.18
33 | U7A U8A G9A U11G C12U C13U | 1.26
34 | U7A U8A G9C U10A U11G C13U | 1.24
35 | U7A U8A G9C U10A U11G C13A | 1.17
36 | U7A U8A G9C U10A U11G C13G | 1.11
37 | U7A U8A G9C C12G C13U | 1.18
38 | U7A U8A G9C C12G C13A | 1.19
39 | U7A U8A G9C C12G C13G | 1.17
40 | U7A U8A G9C U10C U11C C12U | 1.02
41 | U7A U8A G9C U10C U11C C12G | 1.05
42 | U7A U8A G9C U10C U11C C12A | 1.05
43 | U7A U8A G9C U10C U11C C13G | 1.07
44 | U7A U8A G9C U10C U11C C13A | 1.03
45 | U7A U8A G9C U10C U11C C13U | 1.04
46 | U7A U8A G9C U10G U11C C12U C13U | 1.24
47 | U7A U8A G9C U10G U11C C12U C13G | 1.19
48 | U7A U8A G9C U10G U11C C12U C13A | 1.15

Row | Variant | aptazyme ON/OFF ratio
49 | U7A U8A G9C C13U | 1.13
50 | U7A U8A G9C C13G | 1.03
51 | U7A U8A G9C C13A | 1.15
52 | U7A U8A G9C U10A U11C C12U C13U | 1.11
53 | U7A U8A G9C U10A U11C C12U C13G | 1.19
54 | U7A U8A G9C U10A U11C C12U C13A | 1.13
55 | U7A U8A G9C U10A U11G C12G | 1.19
56 | U7A U8A G9C U10A U11G C12U | 1.22
57 | U7A U8A G9C U10A U11G C12A | 1.05
58 | U7A U8A G9C U11A C12U | 1.2
59 | U7A U8A G9C U11A C12G | 1.19
60 | U7A U8A G9C U11A C12A | 1.22
61 | U7A U8A G9C U10G U11G C12A C13A | 1.4
62 | U7A U8A G9C U10G U11G C12A C13U | 1.41
63 | U7A U8A G9C U10G U11G C12A C13G | 1.17
64 | U7A U8A G9C U10G U11A C12U C13G | 1.13
65 | U7A U8A G9C U10G U11A C12U C13U | 1.1
66 | U7A U8A G9C U10G U11A C12U C13A | 1.11
67 | U7A U8A G9C C12A C13U | 1.24
68 | U7A U8A G9C C12A C13G | 1.13
69 | U7A U8A G9C C12A C13A | 1.17
70 | U7A U8A G9C C12U | 1.26
71 | U7A U8A G9C C12A | 1.22
72 | U7A U8A G9C C12G | 1.1

Row | Variant | aptazyme ON/OFF ratio
73 | U7A U8A G9C U10G U11A C13U | 1.04
74 | U7A U8A G9C U10G U11A C13A | 1.04
75 | U7A U8A G9C U10G U11A C13G | 1.09
76 | U7A U8A G9C U10C U11A C12U | 1.07
77 | U7A U8A G9C U10C U11A C12G | 1.06
78 | U7A U8A G9C U10C U11A C12A | 1.06
79 | U7A U8A G9C U10A U11C | 1.04
80 | U7A U8A G9C U10A U11G | 1.24
81 | U7A U8A G9C U10A U11A | 1.21
82 | U7A U8A G9C U10G U11A C12G C13G | 1.21
83 | U7A U8A G9C U10G U11A C12G C13A | 1.26
84 | U7A U8A G9C U10G U11A C12G C13U | 1.13
85 | U7A U8A G9C U10G U11C C12A C13G | 1.08
86 | U7A U8A G9C U10G U11C C12A C13A | 1.19
87 | U7A U8A G9C U10G U11C C12A C13U | 1.23
88 | U7A U8A G9C U10C U11A C13A | 1.14
89 | U7A U8A G9C U10C U11A C13G | 1.19
90 | U7A U8A G9C U10C U11A C13U | 1.13
91 | U7A U8A G9U C12A C13A | 1.25
92 | U7A U8A G9U C12A C13U | 1.52
93 | U7A U8A G9U C12A C13G | 1.25
94 | U7A U8A G9C U10C U11C C12A C13U | 1.02
95 | U7A U8A G9C U10C U11C C12A C13G | 1.01
96 | U7A U8A G9C U10C U11C C12A C13A | 1

Row | Variant | aptazyme ON/OFF ratio
97 | U7A U8A G9C U10A U11A C12A | 1.13
98 | U7A U8A G9C U10A U11A C12G | 1.27
99 | U7A U8A G9C U10A U11A C12U | 1.19
100 | U7A U8A G9A U11C C12G C13U | 1.09
101 | U7A U8A G9A U11C C12G C13A | 1.1
102 | U7A U8A G9A U11C C12G C13G | 1.14
103 | U7A U8A G9C U10C U11C C12G C13G | 1.04
104 | U7A U8A G9C U10C U11C C12G C13A | 1.02
105 | U7A U8A G9C U10C U11C C12G C13U | 1.03
106 | U7A U8A G9C U10C U11G C12A C13A | 0.981
107 | U7A U8A G9C U10C U11G C12A C13U | 1.03
108 | U7A U8A G9C U10C U11G C12A C13G | 1.03
109 | U7A U8A G9C U10C C12G C13G | 1.05
110 | U7A U8A G9C U10C C12G C13A | 0.99
111 | U7A U8A G9C U10C C12G C13U | 1.06
112 | U7A U8A G9A U11C C13U | 1.1
113 | U7A U8A G9A U11C C13G | 1.12
114 | U7A U8A G9A U11C C13A | 1.06
115 | U7A U8A G9C U10C U11C C12U C13U | 1.05
116 | U7A U8A G9C U10C U11C C12U C13A | 1.01
117 | U7A U8A G9C U10C U11C C12U C13G | 1.02
118 | U7A U8A G9A U11A C12U | 1.35
119 | U7A U8A G9C U10C U11A | 0.719
120 | U7A U8A G9C U10C U11G | 0.815

Row | Variant | aptazyme ON/OFF ratio
121 | U7A U8A G9C U10C U11C | 0.984
122 | U7A U8A G9C U10C C12G | 1.04
123 | U7A U8A G9C U10C C12U | 1.07
124 | U7A U8A G9C U10C C12A | 1.03
125 | U7A U8A G9C U10C U11G C13A | 1.06
126 | U7A U8A G9C U10C U11G C13G | 1.05
127 | U7A U8A G9C U10C U11G C13U | 1.05
128 | U7A U8A G9A U11G C12U | 1.69
129 | U7A U8A G9A U11G C12G | 1.3
130 | U7A U8A G9A U11G C12A | 1.11
131 | U7A U8A G9C U11C C12U C13G | 1.11
132 | U7A U8A G9C U11C C12U C13A | 1.13
133 | U7A U8A G9C U11C C12U C13U | 1.08
134 | U7A U8A G9C U10A U11G C12A C13A | 1.07
135 | U7A U8A G9C U10A U11G C12A C13G | 1.18
136 | U7A U8A G9C U10A U11G C12A C13U | 1.08
137 | U7A U8A G9U C12U C13A | 1.34
138 | U7A U8A G9U C12U C13U | 1.22
139 | U7A U8A G9U C12U C13G | 1.16
140 | U7A U8A G9C U10G C12G C13U | 1.22
141 | U7A U8A G9C U10G C12G C13G | 1.11
142 | U7A U8A G9C U10G C12G C13A | 1.22
143 | U7A U8A G9C U10C C13U | 1.12
144 | U7A U8A G9C U10C C13A | 1.04

Row | Variant | aptazyme ON/OFF ratio
145 | U7A U8A G9C U10C C13G | 1
146 | U7A U8A G9C U10C U11A C12A C13A | 1.02
147 | U7A U8A G9C U10C U11A C12A C13U | 1.06
148 | U7A U8A G9C U10C U11A C12A C13G | 1.03
149 | U7A U8A G9C U10G U11C | 1.1
150 | U7A U8A G9C U10G U11G | 1.66
151 | U7A U8A G9C U10G U11A | 1.06
152 | U7A U8A G9A U11G C12A C13U | 1.09
153 | U7A U8A G9A U11G C12A C13A | 1.08
154 | U7A U8A G9A U11G C12A C13G | 1.11
155 | U7A U8A G9C U10G U11C C13U | 1.04
156 | U7A U8A G9C U10G U11C C13A | 1.09
157 | U7A U8A G9C U10G U11C C13G | 1.04
158 | U7A U8A G9C U11A C12U C13G | 1.14
159 | U7A U8A G9C U11A C12U C13A | 1.1
160 | U7A U8A G9C U11A C12U C13U | 1.2
161 | U7A U8A G9C U10A U11C C12A C13U | 1.2
162 | U7A U8A G9C U10A U11C C12A C13A | 1.12
163 | U7A U8A G9C U10A U11C C12A C13G | 1.12
164 | U7A U8A G9C U10A C12G C13G | 1.13
165 | U7A U8A G9C U10A C12G C13U | 1.16
166 | U7A U8A G9C U10A C12G C13A | 1.15
167 | U7A U8A G9C U10A C12U C13G | 1.1
